In patent US20100158808A1, “Altered Activity of Toll-Like Receptors” (priority 2003, published 2010):

Target: T1, TLR4 (Mus musculus, UniProt Q9JHF9+Q9QUK6)
T1 sequence (Q9QUK6 26-835): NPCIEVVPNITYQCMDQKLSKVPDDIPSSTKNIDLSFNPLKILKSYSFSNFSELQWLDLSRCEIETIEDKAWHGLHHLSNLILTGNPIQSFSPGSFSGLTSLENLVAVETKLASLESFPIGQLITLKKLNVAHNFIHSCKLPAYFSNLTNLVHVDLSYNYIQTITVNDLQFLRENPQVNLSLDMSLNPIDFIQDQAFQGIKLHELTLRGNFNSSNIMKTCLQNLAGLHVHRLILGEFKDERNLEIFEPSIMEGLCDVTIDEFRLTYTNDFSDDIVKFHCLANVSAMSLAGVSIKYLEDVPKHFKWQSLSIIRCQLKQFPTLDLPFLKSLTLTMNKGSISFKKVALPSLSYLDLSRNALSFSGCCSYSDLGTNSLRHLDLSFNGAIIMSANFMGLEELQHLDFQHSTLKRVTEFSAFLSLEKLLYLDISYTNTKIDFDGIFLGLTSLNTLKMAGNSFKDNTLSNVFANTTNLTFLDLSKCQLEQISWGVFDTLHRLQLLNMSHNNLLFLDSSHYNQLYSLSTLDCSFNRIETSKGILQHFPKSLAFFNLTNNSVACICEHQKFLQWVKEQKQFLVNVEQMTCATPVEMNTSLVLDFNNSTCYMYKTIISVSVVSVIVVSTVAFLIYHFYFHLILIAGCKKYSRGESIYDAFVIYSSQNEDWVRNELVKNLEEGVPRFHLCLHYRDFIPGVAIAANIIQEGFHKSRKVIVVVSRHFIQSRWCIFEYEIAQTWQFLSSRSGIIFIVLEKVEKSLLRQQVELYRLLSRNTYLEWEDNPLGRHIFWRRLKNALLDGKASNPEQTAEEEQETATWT
T1 sequence (Q9JHF9 19-160): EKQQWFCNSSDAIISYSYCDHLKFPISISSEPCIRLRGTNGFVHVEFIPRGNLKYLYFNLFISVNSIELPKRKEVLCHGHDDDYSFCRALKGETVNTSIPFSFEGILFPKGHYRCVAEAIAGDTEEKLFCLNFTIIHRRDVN
Test: NFκB-luciferase reporter assay in HEK 293 cells stably expressing TLR4, MD2 and/or CD14
Format: cell-based, murine
Parameters: expressed in transfected cells; host or cells: HEK 293
Protocol: Model ECM environment. Tissue culture plates were coated with ECM as follows. PAEC were seeded into 6-well (3×10^5 cells/well), 24-well (5×10^4 cells/well) or 100 mm (2×10^5 cells) fibronectin-coated tissue culture plates (BD Biosciences, San Jose, Calif.) in DMEM (Invitrogen) containing 10% fetal bovine serum supplemented with penicillin and streptomycin and 4% w/v of Dextran 40. The cell cultures were incubated at 37° C. in 5% CO2 humidified atmosphere for seven days and were supplemented with […] on day three and day five. After 7 days, endothelial cells were washed once with phosphate buffered saline (PBS) and lysed by exposure to 0.5% w/v Triton X-100 and 20 mM NH4OH in PBS (pH 7.4) at 37° C. for 20 minutes (Bonifacino, 1998). The wells were then washed 4 times with PBS (pH 7.4) and inspected microscopically to ensure removal of the cells. Plates were used immediately or were stored in PBS (pH 7.4) with […] at 4° C.
HEK 293 cells were stably transfected with the TLR4 and MD2 or CD14 expression plasmids using Superfect (Qiagen, Valencia, Calif.) following the manufacturer's instructions. HEK 293 cells expressing TLR4 and MD2 or CD14 were obtained by culturing the transfected cells with appropriate antibiotic selection medium, and were cloned by limiting dilution in the selection medium. HEK 293 cells expressing TLR4, MD2 and CD14 were generated by transfecting HEK 293 cells that expressed TLR4 and MD2 with the CD14 expression plasmid, and selecting clones using appropriate antibiotic containing medium. Cell lines expressing TLR4 and MD2 and/or CD14 were then maintained in DMEM supplemented with 10% fetal bovine serum and the appropriate selection antibiotics. Control cell lines were transfected with empty expression vectors and incubated in selection conditions as described above. Selected clones were tested for cell surface expression of the TLR4/MD2 complex and CD14 by flow cytometry using monoclonal antibodies specific for the TLR4/MD2 complex or CD14.
NFκB-luciferase reporter assays. Activation of NFκB was measured using a NFκB-luciferase reporter assay. HEK 293 cell lines stably expressing TLR4, MD2 and/or CD14, or control cells were seeded into 24 well tissue culture plates (2×10^5 cells/well) in 1.0 ml DMEM containing 10% fetal bovine serum and penicillin and streptomycin. The cells were allowed to adhere to the culture wells at 37° C. overnight and were then transfected with […] NFκB-firefly-luciferase using Superfect Transfection Reagent (Qiagen). Following transfection, the cells were washed once with phosphate buffered saline and cultured for 24 hours at 37° C. in 1.0 ml DMEM containing 0.5% fetal bovine serum. After various treatments, the culture medium was aspirated and the cells were washed once with PBS. The cells were lysed in […] Passive Lysis Buffer (Promega) with rocking at room temperature for 15 minutes. Renilla- and Firefly-luciferase were assayed simultaneously using the Dual-Luciferase Reporter Assay System (Promega) and a TD-20/20 luminometer (Turner Designs, Sunnyvale, Calif.). Activation of NFκB was reported as a ratio of the firefly luciferase activity to the constitutively expressed Renilla luciferase internal control, and is the mean of triplicate wells.
To determine whether and under what conditions HS stimulates TLR4, various combinations of TLR4, MD2 and CD14, components of the putative TLR4 receptor complex, were stably expressed in HEK 293 cells and the effect of HS on TLR4 signaling in the transfected cells was examined (FIG. 1). The HEK 293 cells expressing receptor components were transiently transfected with a NFκB-firefly luciferase reporter construct along with a Renilla-luciferase internal control reporter construct. […]

[1] = HEK 293 cells lacking TLR4 and MD2 or CD14
[2] = HEK 293 cells that expressed TLR4, MD2, and CD14

| Substance | NFκB reporter response to elastase alone (HEK/TLR4(+) cells cultured in ECM, elastase 0.1 U/ml, no HS) | NFκB reporter response to elastase alone (HEK/TLR4(+) cells cultured on ECM, elastase 0.3 U/ml) | Activation in response to HS relative to cells not treated with elastase (HEK/TLR4(+) cells on ECM, elastase 0.1 U/ml plus HS) | Activation of reporter expression after elastase pre-treatment and treatment with HS or LPS (HEK/TLR4(+) cells on PAEC ECM, versus control cells not pre-treated) | NFκB reporter response to elastase (HEK/TLR4(+) cells on fibronectin, elastase 0.1 or 0.3 U/ml) | Activation of NFκB-luciferase reporter [1] | Activation of NFκB-luciferase reporter [2] | Effect of nitrous acid treatment on ability to stimulate TLR4 (HEK/TLR4(+) cells, nitrous acid pH 4.0 or pH 1.5) |
| --- | --- | --- | --- | --- | --- | --- | --- | --- |
| elastase: pancreatic elastase (Calbiochem; type IV porcine pancreatic elastase, Sigma-Aldrich), protease that cleaves ECM proteins | did not respond | responded even without addition of HS | 2 fold | greater | did not respond to either concentration of elastase |  |  |  |
| heparan sulfate [HS] |  |  |  |  |  | did not respond | activated |  |
| lipopolysaccharide [LPS] |  |  |  |  |  | did not respond | activated | did not affect |
